# B1: ADI-34134 Fab (Fab, V domains shown)
# VH: QVQLVQSGAEVKKPGSSVKVSCKASGGTFSSYAISWVRQAPGQGLEWMGGIIPIFGTANYAQKFQGRVTITADESTSTAYMELSSLRSEDTAVYYCARGAPNYYGSGGYDDGWFDPWGQGTLVTVSS
# VL: EIVLTQSPGTLSLSPGERATLSCRASQSVSSDYLAWYQQKPGQAPRLLIYGASSRATGIPDRFSGSGSGTDFTLTISRLEPEDFAVYYCQQFGRVPTFGGGTKVEIK
# notes: Fab made by papain digestion of the IgG
# B2: ADI-34145 Fab (Fab, V domains shown)
# VH: EVQLLESGGGLVQPGGSLRLSCAASGFTFSSYAMSWVRQAPGKGLEWVSTISGSGGSTYYADSVKGRFTISRDNSKNTLYLQMNSLRAEDTAVYYCARLGGRRGSGSSYYYYYGMDVWGQGTTVTVSS
# VL: not shown
# notes: as for B1
# Legend:
# ADI-26921 IgG = biological target: T1, ADI-26921 IgG; assay: BLI; tip anti-CD3 IgG, solution ADI-34134 Fab
# T1 construct: anti-CD3 IgG
# T1 sequence (VH, as listed by the source limits assumed, chain 1 of 2): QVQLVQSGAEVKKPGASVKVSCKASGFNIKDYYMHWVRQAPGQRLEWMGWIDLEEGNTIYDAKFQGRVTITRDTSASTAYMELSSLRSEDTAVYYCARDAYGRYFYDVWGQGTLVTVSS
# T1 sequence (VL, as listed by the source limits assumed, chain 2 of 2): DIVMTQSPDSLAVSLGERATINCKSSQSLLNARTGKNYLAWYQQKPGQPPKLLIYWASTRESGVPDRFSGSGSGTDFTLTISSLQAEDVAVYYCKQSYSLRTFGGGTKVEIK
# Procedure: (§1) ForteBio affinity measurements were performed generally as previously described (Estep et al., MAbs. 2013 5(2):270-8). Briefly, ForteBio affinity measurements were performed by loading antibody IgG or Fabs on-line onto AHC sensors. Sensors were equilibrated off-line in assay buffer for 30 minutes and then monitored on-line for 60 seconds for baseline establishment. For avid binding measurement, sensors with loaded antibodies were exposed to IgG or Fab solutions for 3 minutes, afterwards they were transferred to assay buffer for 3 minutes for off-rate measurement. Kinetics data were fit using a 1:1 binding model in the data analysis software provided by ForteBio to obtain equilibrium dissociation constant (KD=koff/kₒₙ) values. In each column, tip-immobilized antibodies are listed first and solution antibodies second.
# (§2) CTL-19613 is an IgG1 antibody prepared with anti-CD3 variable domains corresponding with those of clone 12C described in United States Publication Number US 2010/0183615 (e.g., see paragraphs 469-479 and FIG. 25 thereof), which also make up the CD3 binding domain of the bispecific antibody pasotuxizumab. […] In each column, tip-immobilized antibodies are listed first and solution antibodies second.
# CTL-19613 IgG [1] = assay: BLI; tip anti-CD3 IgG, solution ADI-34134 Fab
# Procedure: as §1, §2
# ADI-26928 IgG = biological target: T2, ADI-26928 IgG; assay: BLI; tip anti-CD3 IgG, solution ADI-34134 Fab
# T2 construct: anti-CD3 IgG
# T2 sequence (VH, as listed by the source limits assumed, chain 1 of 2): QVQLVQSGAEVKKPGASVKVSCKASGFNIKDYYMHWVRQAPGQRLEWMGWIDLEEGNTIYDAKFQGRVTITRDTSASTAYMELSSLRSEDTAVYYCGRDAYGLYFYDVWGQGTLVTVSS
# Procedure: as §1, §2
# ADI-26941 IgG = biological target: T3, ADI-26941 IgG; assay: BLI; tip anti-CD3 IgG, solution ADI-34134 Fab
# T3 construct: anti-CD3 IgG
# T3 sequence (VH, as listed by the source limits assumed, chain 1 of 2): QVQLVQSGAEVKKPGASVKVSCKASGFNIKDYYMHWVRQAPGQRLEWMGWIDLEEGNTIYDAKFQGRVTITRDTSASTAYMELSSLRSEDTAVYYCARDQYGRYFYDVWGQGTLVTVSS
# T3 sequence (VL, as listed by the source limits assumed, chain 2 of 2): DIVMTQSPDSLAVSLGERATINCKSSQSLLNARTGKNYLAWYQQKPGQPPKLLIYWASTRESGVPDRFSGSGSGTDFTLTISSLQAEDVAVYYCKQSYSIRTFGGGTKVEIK
# Procedure: as §1, §2
# ADI-26913 IgG [2] = biological target: T4, ADI-26913 IgG; assay: BLI; tip anti-CD3 IgG, solution ADI-34134 Fab
# T4 construct: anti-CD3 IgG
# T4 sequence (VH, as listed by the source limits assumed, chain 1 of 2): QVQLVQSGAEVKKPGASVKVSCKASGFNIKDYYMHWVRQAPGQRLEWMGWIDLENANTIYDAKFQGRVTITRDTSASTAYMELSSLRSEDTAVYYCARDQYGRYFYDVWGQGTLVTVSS
# T4 sequence (VL, as listed by the source limits assumed, chain 2 of 2): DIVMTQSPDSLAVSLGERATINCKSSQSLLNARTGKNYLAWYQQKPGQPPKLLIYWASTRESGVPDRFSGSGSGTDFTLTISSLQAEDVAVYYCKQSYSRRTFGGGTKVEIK
# Procedure: as §1, §2
# ADI-26906 IgG [3] = biological target: T5, ADI-26906 IgG; assay: BLI; tip anti-CD3 IgG, solution ADI-34134 Fab
# T5 construct: anti-CD3 IgG
# T5 sequence (VH, as listed by the source limits assumed, chain 1 of 2): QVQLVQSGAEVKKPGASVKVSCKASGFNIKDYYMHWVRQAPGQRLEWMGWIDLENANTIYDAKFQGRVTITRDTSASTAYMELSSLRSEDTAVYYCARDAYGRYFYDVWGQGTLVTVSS
# Procedure: as §1, §2
# ADI-22523 IgG [4] = biological target: T6, ADI-22523 IgG; assay: BLI; tip anti-CD3 IgG, solution ADI-34134 Fab
# T6 construct: anti-CD3 IgG
# T6 sequence (VH, as listed by the source limits assumed, chain 1 of 2): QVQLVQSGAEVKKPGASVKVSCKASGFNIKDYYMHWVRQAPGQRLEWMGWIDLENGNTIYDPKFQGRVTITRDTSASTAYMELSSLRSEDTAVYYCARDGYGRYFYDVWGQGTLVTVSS
# T6 sequence (VL, as listed by the source limits assumed, chain 2 of 2): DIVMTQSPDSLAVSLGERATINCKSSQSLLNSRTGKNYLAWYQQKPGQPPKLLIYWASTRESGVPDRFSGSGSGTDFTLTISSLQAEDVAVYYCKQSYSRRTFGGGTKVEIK
# Procedure: as §1, §2
# ADI-26927 IgG = biological target: T7, ADI-26927 IgG; assay: BLI; tip anti-CD3 IgG, solution ADI-34134 Fab
# T7 construct: anti-CD3 IgG
# T7 sequence (VH, as listed by the source limits assumed, chain 1 of 2): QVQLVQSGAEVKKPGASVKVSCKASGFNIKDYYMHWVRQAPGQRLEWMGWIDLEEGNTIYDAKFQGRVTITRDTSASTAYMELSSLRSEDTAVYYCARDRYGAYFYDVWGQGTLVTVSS
# Procedure: as §1, §2
# ADI-26916 IgG [5] = biological target: T8, ADI-26916 IgG; assay: BLI; tip anti-CD3 IgG, solution ADI-34134 Fab
# T8 construct: anti-CD3 IgG
# T8 sequence (VH, as listed by the source, chain 1 of 2): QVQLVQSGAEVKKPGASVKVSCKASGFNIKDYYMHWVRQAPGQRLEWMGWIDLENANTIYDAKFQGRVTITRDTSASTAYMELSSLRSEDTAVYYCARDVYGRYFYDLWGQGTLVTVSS
# Procedure: as §1, §2
# ADI-26920 IgG [6] = biological target: T9, ADI-26920 IgG; assay: BLI; tip anti-CD3 IgG, solution ADI-34134 Fab
# T9 construct: anti-CD3 IgG
# T9 sequence (VH, as listed by the source limits assumed, chain 1 of 2): as the sequence (VH, as listed by the source, chain 1 of 2) above, with A97G, V100A, L108V counted along it
# Procedure: as §1, §2
# ADI-26927 anti-CD3 bsIgG = biological target: T10, ADI-26927 anti-CD3 bsIgG; assay: BLI; tip anti-CD3 bsIgG, solution ADI-34134 Fab
# T10 construct: anti-HER2 IgG with one Fab arm replaced by the anti-CD3 scFv (printed 'Vx-VH', read as VL-VH); S354C and Y349C mutations; also called anti-CD3 bsIgG (ADI-26927 scFv); not shown: scFv linker; anti-HER2 Fab arm (heavy and light chain); hinge and Fc with S354C/Y349C
# T10 sequence (VH, as listed by the source limits assumed, chain 1 of 2): as the sequence (VH, as listed by the source, chain 1 of 2) above, with N55E, A56G, V100R, R103A, L108V counted along it
# Procedure: as §1
# (§3) Additional analysis was conducted using bispecific antibody formats incorporating anti-CD3 antibody variable domains. Bispecific antibodies were prepared using standard IgG formats (bsIgG) with replacement of Fab arms with anti-CD3 scFvs in Vx-VH orientation and with S354C and Y349C mutations for disulfide stabilization. Antibodies used for Fab arm replacement were anti-HER2 IgG antibodies, with one Fab arm from each replaced by a scFv corresponding to a different anti-CD3 antibody. […] In each column, tip-immobilized antibodies are listed first and solution antibodies second. Anti-CD3 antibodies associated with incorporated scFvs are listed by antibody number.
# ADI-26928 anti-CD3 bsIgG = biological target: T11, ADI-26928 anti-CD3 bsIgG; assay: BLI; tip anti-CD3 bsIgG, solution ADI-34134 Fab
# T11 construct: anti-HER2 IgG with one Fab arm replaced by the anti-CD3 scFv (printed 'Vx-VH', read as VL-VH); S354C and Y349C mutations; also called anti-CD3 bsIgG (ADI-26928 scFv); not shown: scFv linker; anti-HER2 Fab arm (heavy and light chain); hinge and Fc with S354C/Y349C
# T11 sequence (VH, as listed by the source limits assumed, chain 1 of 2): as the sequence (VH, as listed by the source, chain 1 of 2) above, with N55E, A56G, A97G, V100A, R103L, L108V counted along it
# Procedure: as §1, §3
# ADI-26920 anti-CD3 bsIgG [7] = biological target: T12, ADI-26920 anti-CD3 bsIgG; assay: BLI; tip anti-CD3 bsIgG, solution ADI-34134 Fab
# T12 construct: anti-HER2 IgG with one Fab arm replaced by the anti-CD3 scFv (printed 'Vx-VH', read as VL-VH); S354C and Y349C mutations; also called anti-CD3 bsIgG (ADI-26920 scFv); not shown: scFv linker; anti-HER2 Fab arm (heavy and light chain); hinge and Fc with S354C/Y349C
# T12 sequence (VH, as listed by the source limits assumed, chain 1 of 2): as the sequence (VH, as listed by the source, chain 1 of 2) above, with A97G, V100A, L108V counted along it
# Procedure: as §1, §3
# ADI-26913 anti-CD3 bsIgG [8] = biological target: T13, ADI-26913 anti-CD3 bsIgG; assay: BLI; tip anti-CD3 bsIgG, solution ADI-34134 Fab
# T13 construct: anti-HER2 IgG with one Fab arm replaced by the anti-CD3 scFv (printed 'Vx-VH', read as VL-VH); S354C and Y349C mutations; also called anti-CD3 bsIgG (ADI-26913 scFv); not shown: scFv linker; anti-HER2 Fab arm (heavy and light chain); hinge and Fc with S354C/Y349C
# T13 sequence (VH, as listed by the source limits assumed, chain 1 of 2): as the sequence (VH, as listed by the source, chain 1 of 2) above, with V100Q, L108V counted along it
# Procedure: as §1, §3
# ADI-22523 anti-CD3 bsIgG = biological target: T14, ADI-22523 anti-CD3 bsIgG (In the assayed molecule VL and VH are joined as one scFv (printed 'Vx-VH' orientation) by an undisclosed linker and fused to an Fc, paired with an anti-HER2 half-IgG. They are given here as two …); assay: BLI; tip anti-CD3 bsIgG, solution ADI-34134 Fab
# T14 construct: anti-HER2 IgG with one Fab arm replaced by the anti-CD3 scFv (printed 'Vx-VH', read as VL-VH); S354C and Y349C mutations; not shown: scFv linker between VL and VH; anti-HER2 heavy and light chains; hinge and Fc with S354C/Y349C
# T14 sequence (VH, as listed by the source limits assumed, chain 1 of 2): as the sequence (VH, as listed by the source, chain 1 of 2) above, with A56G, A62P, V100G, L108V counted along it
# Procedure: as §1, §3
# ADI-26906 anti-CD3 bsIgG [9] = biological target: T15, ADI-26906 anti-CD3 bsIgG; assay: BLI; tip anti-CD3 bsIgG, solution ADI-34134 Fab
# T15 construct: anti-HER2 IgG with one Fab arm replaced by the anti-CD3 scFv (printed 'Vx-VH', read as VL-VH); S354C and Y349C mutations; also called anti-CD3 bsIgG (ADI-26906 scFv); not shown: scFv linker; anti-HER2 Fab arm (heavy and light chain); hinge and Fc with S354C/Y349C
# T15 sequence (VH, as listed by the source limits assumed, chain 1 of 2): as the sequence (VH, as listed by the source, chain 1 of 2) above, with V100A, L108V counted along it
# Procedure: as §1, §3
# ADI-26921 anti-CD3 bsIgG = biological target: T16, ADI-26921 anti-CD3 bsIgG; assay: BLI; tip anti-CD3 bsIgG, solution ADI-34134 Fab
# T16 construct: anti-HER2 IgG with one Fab arm replaced by the anti-CD3 scFv (printed 'Vx-VH', read as VL-VH); S354C and Y349C mutations; also called anti-CD3 bsIgG (ADI-26921 scFv); not shown: scFv linker; anti-HER2 Fab arm (heavy and light chain); hinge and Fc with S354C/Y349C
# T16 sequence (VH, as listed by the source limits assumed, chain 1 of 2): as the sequence (VH, as listed by the source, chain 1 of 2) above, with N55E, A56G, V100A, L108V counted along it
# Procedure: as §1, §3
# CTL-19613 anti-CD3 bsIgG [10] = biological target: T17, CTL-19613 anti-CD3 bsIgG (In the assay the two domains were one scFv (VL-VH orientation, linker not given). It replaced one Fab arm of an anti-HER2 IgG; S354C and Y349C mutations are stated for disulfide stabilization.); assay: BLI; tip anti-CD3 bsIgG, solution ADI-34134 Fab
# T17 construct: anti-HER2 IgG with one Fab arm replaced by the anti-CD3 scFv (printed 'Vx-VH', read as VL-VH); S354C and Y349C mutations; also called anti-CD3 bsIgG (CTL-19613 scFv); not shown: scFv linker between VL and VH; anti-HER2 heavy and light chains of the other arm; hinge and Fc (with S354C / Y349C)
# Procedure: as §1, §3
# CTL-19672 anti-CD3 bsIgG = biological target: T18, CTL-19672 anti-CD3 bsIgG (In the assay the two domains were one scFv (VL-VH orientation, linker not given). It replaced one Fab arm of an anti-HER2 IgG; S354C and Y349C mutations are stated for disulfide stabilization.); assay: BLI; tip anti-CD3 bsIgG, solution ADI-34145 Fab
# T18 construct: anti-HER2 IgG with one Fab arm replaced by the anti-CD3 scFv (printed 'Vx-VH', read as VL-VH); S354C and Y349C mutations; not shown: scFv linker between VL and VH; anti-HER2 heavy and light chains of the other arm; hinge and Fc (with S354C / Y349C)
# T18 sequence (VH, as listed by the source limits assumed, chain 1 of 2): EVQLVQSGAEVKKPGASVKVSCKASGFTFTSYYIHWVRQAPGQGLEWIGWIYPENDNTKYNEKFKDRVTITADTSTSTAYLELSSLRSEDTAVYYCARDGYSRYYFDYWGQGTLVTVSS
# T18 sequence (VL, as listed by the source limits assumed, chain 2 of 2): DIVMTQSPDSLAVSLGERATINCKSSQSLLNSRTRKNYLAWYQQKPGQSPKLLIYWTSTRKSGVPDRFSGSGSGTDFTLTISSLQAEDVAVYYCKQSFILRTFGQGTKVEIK
# Procedure: as §1, §3
# ADI-26920 anti-CD3 bsIgG [11] = biological target: T12, ADI-26920 anti-CD3 bsIgG; assay: BLI; tip anti-CD3 bsIgG, solution ADI-34145 Fab
# Procedure: as §1, §3
# ADI-26913 anti-CD3 bsIgG [12] = biological target: T13, ADI-26913 anti-CD3 bsIgG; assay: BLI; tip anti-CD3 bsIgG, solution ADI-34145 Fab
# Procedure: as §1, §3
# ADI-26906 anti-CD3 bsIgG [13] = biological target: T15, ADI-26906 anti-CD3 bsIgG; assay: BLI; tip anti-CD3 bsIgG, solution ADI-34145 Fab
# Procedure: as §1, §3
# CTL-19613 anti-CD3 bsIgG [14] = biological target: T17, CTL-19613 anti-CD3 bsIgG; assay: BLI; tip anti-CD3 bsIgG, solution ADI-34145 Fab
# Procedure: as §1, §3
# CTL-19613 IgG [15] = assay: BLI; tip anti-CD3 IgG, solution ADI-34145 Fab
# Procedure: as §1, §2
# ADI-26913 IgG [16] = biological target: T4, ADI-26913 IgG; assay: BLI; tip anti-CD3 IgG, solution ADI-34145 Fab
# Procedure: as §1, §2
# ADI-26906 IgG [17] = biological target: T5, ADI-26906 IgG; assay: BLI; tip anti-CD3 IgG, solution ADI-34145 Fab
# Procedure: as §1, §2
# ADI-22523 IgG [18] = biological target: T6, ADI-22523 IgG; assay: BLI; tip anti-CD3 IgG, solution ADI-34145 Fab
# Procedure: as §1, §2
# ADI-26916 IgG [19] = biological target: T8, ADI-26916 IgG; assay: BLI; tip anti-CD3 IgG, solution ADI-34145 Fab
# Procedure: as §1, §2
# ADI-26920 IgG [20] = biological target: T9, ADI-26920 IgG; assay: BLI; tip anti-CD3 IgG, solution ADI-34145 Fab
# Procedure: as §1, §2
# CTL-19672 IgG = biological target: T19, CTL-19672 IgG; assay: BLI; tip anti-CD3 IgG, solution ADI-34145 Fab
# T19 construct: IgG1 with the anti-CD3 variable domains of clone 38E4v1
# Procedure: as §1, §2
binder,measurement,setting,value
B1,Kd,ADI-26921 IgG,56.5 nM
same,binding result,CTL-19613 IgG [1],no binding
same,Kd,ADI-26928 IgG,185 nM
same,Kd,ADI-26941 IgG,138 nM
same,Kd,ADI-26913 IgG [2],79.8 nM
same,Kd,ADI-26906 IgG [3],17.8 nM
same,Kd,ADI-22523 IgG [4],5.68 nM
same,Kd,ADI-26927 IgG,38.2 nM
same,Kd,ADI-26916 IgG [5],157 nM
same,Kd,ADI-26920 IgG [6],31 nM
same,Kd,ADI-26927 anti-CD3 bsIgG,48.9 nM
same,Kd,ADI-26928 anti-CD3 bsIgG,110 nM
same,Kd,ADI-26920 anti-CD3 bsIgG [7],28.7 nM
same,Kd,ADI-26913 anti-CD3 bsIgG [8],74.2 nM
same,Kd,ADI-22523 anti-CD3 bsIgG,10.9 nM
same,Kd,ADI-26906 anti-CD3 bsIgG [9],27.2 nM
same,Kd,ADI-26921 anti-CD3 bsIgG,37.1 nM
same,binding result,CTL-19613 anti-CD3 bsIgG [10],no binding
B2,binding result,CTL-19672 anti-CD3 bsIgG,no binding
same,Kd,ADI-26920 anti-CD3 bsIgG [11],93.8 nM
same,Kd,ADI-26913 anti-CD3 bsIgG [12],159 nM
same,Kd,ADI-26906 anti-CD3 bsIgG [13],24.4 nM
same,binding result,CTL-19613 anti-CD3 bsIgG [14],no binding
same,binding result,CTL-19613 IgG [15],no binding
same,Kd,ADI-26913 IgG [16],3.15 nM
same,Kd,ADI-26906 IgG [17],3.25 nM
same,Kd,ADI-22523 IgG [18],3.22 nM
same,Kd,ADI-26916 IgG [19],19.4 nM
same,Kd,ADI-26920 IgG [20],8.97 nM
same,binding result,CTL-19672 IgG,no binding
